Where a chain is given by its changes, count along the chain named. Each block holds one binder with its values, some of them ahead of it.
How the values were obtained:
[1] = target: cynomolgus monkey CD3 E&D complex protein (Sino Biological Inc., CT032-00323H) (cynomolgus monkey) (UniProt Q95LI5); experiment: SPR, antigen on chip
[2] = target: human CD3E&G complex (Sino Biological Inc., CT041-H0305H) (human) (UniProt P07766); experiment: SPR, antigen on chip
Chain of human CD3E&G complex (Sino Biological Inc., CT041-H0305H) (human) (P07766 23-126, chain 1 of 2): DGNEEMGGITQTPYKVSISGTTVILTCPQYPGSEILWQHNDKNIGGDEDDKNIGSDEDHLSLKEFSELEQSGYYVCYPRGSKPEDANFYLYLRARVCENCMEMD
Chain of human CD3E&G complex (Sino Biological Inc., CT041-H0305H) (human) (P09693 23-116, chain 2 of 2, further chain): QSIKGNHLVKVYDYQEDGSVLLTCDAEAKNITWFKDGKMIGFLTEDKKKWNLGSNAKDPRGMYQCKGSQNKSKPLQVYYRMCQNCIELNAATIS

Chain of cynomolgus monkey CD3 E&D complex protein (Sino Biological Inc., CT032-00323H) (cynomolgus monkey) (Q95LI5 22-117, chain 1 of 2): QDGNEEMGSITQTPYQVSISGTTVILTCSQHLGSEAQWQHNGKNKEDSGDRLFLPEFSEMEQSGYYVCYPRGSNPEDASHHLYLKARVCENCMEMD
Chain of cynomolgus monkey CD3 E&D complex protein (Sino Biological Inc., CT032-00323H) (cynomolgus monkey) (Q95LI8 22-105, chain 2 of 2, further chain): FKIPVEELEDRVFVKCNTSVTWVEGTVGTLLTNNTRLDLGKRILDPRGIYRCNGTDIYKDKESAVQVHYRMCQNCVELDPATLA

- Kd [1]: 141 nM
- koff [1]: 0.0158 s⁻¹
- kon [1]: 113000 M⁻¹ s⁻¹
- Kd [2]: 98 nM
- koff [2]: 0.0146 s⁻¹
- kon [2]: 150000 M⁻¹ s⁻¹
B1: SGN70-sp34.24LH (bispecific antibody, part only; not given: anti-CD70 Fab arm and Fc, not shown: another chain or arm of the molecule; a dimerising Fc or GST; large carriers; small tags and cut ends)
scFv: QAVVTQEPSLTVSPGGTVTLTCRSSTGAVTTSNYANWVQQKPGQAPRGLIGGTNKRAPGVPARFSGSLLGDKAALTLLGAQPEDEAEYYCALWYSNLWVFGQGTKLTVLGGGGSGGGGSGGGGSGGGGSEVQLVESGGGLVQPGGSLKLSCAASGFTFNTYAMNWVRQASGKGLEWVGRIRSKYNNYATYYADSVKDRFTISRDDSKSTLYLQMNSLKTEDTAVYYCARHGNFGQSYVSWFAYWGQGTTVTVSS

- Kd [1]: 614 nM
- koff [1]: 0.144 s⁻¹
- kon [1]: 235000 M⁻¹ s⁻¹
- Kd [2]: 409 nM
- koff [2]: 0.119 s⁻¹
- kon [2]: 290000 M⁻¹ s⁻¹
B2: SGN70-sp34.101LH (bispecific antibody, part only; not given: anti-CD70 Fab arm and Fc, not shown: another chain or arm of the molecule; a dimerising Fc or GST; large carriers)
scFv: B1 scFv with Y237A, V238A

- Kd [1]: 5220 nM
- koff [1]: 0.333 s⁻¹
- kon [1]: 63800 M⁻¹ s⁻¹
- Kd [2]: 3110 nM
- koff [2]: 0.253 s⁻¹
- kon [2]: 81300 M⁻¹ s⁻¹
B3: SGN70-sp34.97LH (bispecific antibody, part only; not given: anti-CD70 Fab arm and Fc, not shown: another chain or arm of the molecule; a dimerising Fc or GST)
scFv: B1 scFv with Y184A, N185G, N186G

- Kd [1]: 14600 nM
- koff [1]: 0.217 s⁻¹
- kon [1]: 14900 M⁻¹ s⁻¹
- Kd [2]: 8060 nM
- koff [2]: 0.993 s⁻¹
- kon [2]: 123000 M⁻¹ s⁻¹
B4: SGN70-sp34.99LH (bispecific antibody, part only; not given: anti-CD70 Fab arm and Fc, not shown: another chain or arm of the molecule; a dimerising Fc or GST)
scFv: B1 scFv with F233A, G234Y

- Kd [1]: 544 nM
- koff [1]: 0.0466 s⁻¹
- kon [1]: 85700 M⁻¹ s⁻¹
- Kd [2]: 335 nM
- koff [2]: 0.107 s⁻¹
- kon [2]: 321000 M⁻¹ s⁻¹
B5: SGN70-sp34.87LH (bispecific antibody, part only; not given: anti-CD70 Fab arm and Fc, not shown: another chain or arm of the molecule; a dimerising Fc or GST)
scFv: B1 scFv with G231Y

- Kd [1]: 6490 nM
- koff [1]: 0.749 s⁻¹
- kon [1]: 115000 M⁻¹ s⁻¹
- Kd [2]: 4060 nM
- koff [2]: 0.201 s⁻¹
- kon [2]: 49700 M⁻¹ s⁻¹
B6: SGN70-sp34.80LH (bispecific antibody, part only; not given: anti-CD70 Fab arm and Fc, not shown: another chain or arm of the molecule; a dimerising Fc or GST)
scFv: B1 scFv with Y161A

- Kd [1]: 179 nM
- koff [1]: 0.0302 s⁻¹
- kon [1]: 169000 M⁻¹ s⁻¹
- Kd [2]: 110 nM
- koff [2]: 0.029 s⁻¹
- kon [2]: 265000 M⁻¹ s⁻¹
B7: SGN70-sp34.24HL (bispecific antibody, part only; not given: anti-CD70 Fab arm and Fc, not shown: another chain or arm of the molecule; a dimerising Fc or GST; large carriers; small tags and cut ends)
scFv: EVQLVESGGGLVQPGGSLKLSCAASGFTFNTYAMNWVRQASGKGLEWVGRIRSKYNNYATYYADSVKDRFTISRDDSKSTLYLQMNSLKTEDTAVYYCARHGNFGQSYVSWFAYWGQGTTVTVSSGGGGSGGGGSGGGGSGGGGSQAVVTQEPSLTVSPGGTVTLTCRSSTGAVTTSNYANWVQQKPGQAPRGLIGGTNKRAPGVPARFSGSLLGDKAALTLLGAQPEDEAEYYCALWYSNLWVFGQGTKLTVL

- Kd [1]: 5500 nM
- koff [1]: 0.705 s⁻¹
- kon [1]: 128000 M⁻¹ s⁻¹
- Kd [2]: 5200 nM
- koff [2]: 0.416 s⁻¹
- kon [2]: 79900 M⁻¹ s⁻¹
B8: SGN70-sp34.97HL (bispecific antibody, part only; not given: anti-CD70 Fab arm and Fc, not shown: another chain or arm of the molecule; a dimerising Fc or GST)
scFv: B7 scFv with Y55A, N56G, N57G

- Kd [1]: 658 nM
- koff [1]: 0.177 s⁻¹
- kon [1]: 269000 M⁻¹ s⁻¹
- Kd [2]: 480 nM
- koff [2]: 0.167 s⁻¹
- kon [2]: 347000 M⁻¹ s⁻¹
B9: SGN70-sp34.101HL (bispecific antibody, part only; not given: anti-CD70 Fab arm and Fc, not shown: another chain or arm of the molecule; a dimerising Fc or GST; large carriers)
scFv: B7 scFv with Y108A, V109A

- Kd [1]: 633 nM
- koff [1]: 0.195 s⁻¹
- kon [1]: 308000 M⁻¹ s⁻¹
- Kd [2]: 501 nM
- koff [2]: 0.253 s⁻¹
- kon [2]: 504000 M⁻¹ s⁻¹
B10: SGN70-sp34.87HL (bispecific antibody, part only; not given: anti-CD70 Fab arm and Fc, not shown: another chain or arm of the molecule; a dimerising Fc or GST)
scFv: B7 scFv with G102Y
